The supplement of paper PMC7877785
± gives the uncertainty stated by the source.

Assay: self-splicing fitness, log relative to wild type (ln ratio); higher = more splicing; Tetrahymena group I intron in knt gene, E. coli kanamycin selection, DiMSum; sequences stand for … in CUCUCU…GGAGGGAAAAGUUAUCAGGCAUGCACCUGGUAGCUAGUCUUUAAACCAAUAGAUUGCAUCGGUUUAAAAGGCAAGACCGUCAAAUUGCGGGAAAGGGGUCAACAGCCGUUCAGUACCAAGUCUCAGGGGAAACUUUGAGAUGGCCUUGCAAAGGGUAUGGUAAUAAGCUGACGGACAUGGUCCUAACCACGCAGCCAAGUCCUAAGUCAACAGAUCUUCUGUUGAUAUGGAUGCAGUUCACAGACUAAAUGUCGGUCGGGGAAGAUGUAUUCUUCUCAUAAGAUAUAGUCGGACCUCUCCUUAAUGGGAGCUAGCGGAUGAAGUGAUGCAACACUGGAGCCGCUGGGAACUAAUUUGUAUGCGAAAGUAUAUUGAUUAGUUUUGGAGUACUCGUGGUCG
In short: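 Library with all eight P1ex-region intron nucleotides randomised, intron inside the knt kanamycin-resistance gene on pET-22b(+), in E. coli BL21(DE3). Cells grew overnight at 37°C or 30°C on LB agar with or without 25 μg/mL kanamycin (plus 100 μg/mL carbenicillin, 50 μM IPTG, 0.2% rhamnose), in six replicate transformations. Pooled colonies were amplicon-sequenced on Illumina HiSeq 2500. DiMSum fitness is the error-weighted combination of wild-type-normalised replicate fold changes, kanamycin versus none.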

Sequence | self-splicing fitness (ln) (30 °C) | self-splicing fitness (ln) (37 °C)
AGCCAGCAAUAUUACGAUUG | -4.59 ± 0.3 | -0.923 ± 0.19
AGCCAGCAAUAUUACGAUUU | -2.3 ± 0.1 | -1.24 ± 0.11
AGCCAGCAAUAUUACGCACG | -2.34 ± 0.11 | -0.605 ± 0.12
AGCCAGCAAUAUUACGCCAG | -3.96 ± 0.27 | -2.23 ± 0.16
AGCCAGCAAUAUUACGCCGG |  | -3.39 ± 0.27
AGCCAGCAAUAUUACGCCUC |  | -0.728 ± 0.44
AGCCAGCAAUAUUACGGAAU | -1.76 ± 0.12 | -1.52 ± 0.14
AGCCAGCAAUAUUACGGAGA | -2.57 ± 0.16 | -1.34 ± 0.15
AGCCAGCAAUAUUACGGCAC | -1.26 ± 0.13 | -0.402 ± 0.15
AGCCAGCAAUAUUACGGCCA | -0.79 ± 0.089 | -0.322 ± 0.11
AGCCAGCAAUAUUACGGGUG | -2.15 ± 0.075 | -0.713 ± 0.085
AGCCAGCAAUAUUACGGUGC | -2.49 ± 0.12 | -2.28 ± 0.17
AGCCAGCAAUAUUACGGUUA | -0.713 ± 0.13 | -0.226 ± 0.11
AGCCAGCAAUAUUACGUAGG | -3.77 ± 0.2 | -3.33 ± 0.24
AGCCAGCAAUAUUACGUCAA | -3.18 ± 0.22 | -2.53 ± 0.21
AGCCAGCAAUAUUACGUCAG | -3.58 ± 0.17 | -2.77 ± 0.23
AGCCAGCAAUAUUACGUCAU | -2.29 ± 0.12 | -0.981 ± 0.15
AGCCAGCAAUAUUACGUCGG | -3.89 ± 0.3 | -2.97 ± 0.32
AGCCAGCAAUAUUACGUGCC | -2.96 ± 0.15 | -1.98 ± 0.14
AGCGAGCAAUAUUACGAACG | -2.14 ± 0.29 | -1.5 ± 0.2
AGCGAGCAAUAUUACGACCA | -1.37 ± 0.22 | -1.08 ± 0.22
AGCGAGCAAUAUUACGAGAG | -3.19 ± 0.32 | -2.94 ± 0.32
AGCGAGCAAUAUUACGAGGU | -3.69 ± 0.24 | -2.48 ± 0.3
AGCGAGCAAUAUUACGCACC | -0.941 ± 0.45 | -0.411 ± 0.37
AGCGAGCAAUAUUACGCCGU |  | -1.24 ± 0.34

Sequence | self-splicing fitness (ln) (30 °C) | self-splicing fitness (ln) (37 °C)
AGCGAGCAAUAUUACGCGCG | -4.04 ± 0.33 | -1.89 ± 0.25
AGCGAGCAAUAUUACGGAAG | -4.34 ± 0.42 | -2.68 ± 0.29
AGCGAGCAAUAUUACGGCCG | -2.6 ± 0.34 | -1.72 ± 0.26
AGCGAGCAAUAUUACGGCGC | -2.72 ± 0.22 | -1.98 ± 0.2
AGCGAGCAAUAUUACGGGAA |  | -1.86 ± 0.27
AGCGAGCAAUAUUACGGGGA | -2.64 ± 0.35 | -1.22 ± 0.22
AGCGAGCAAUAUUACGGGGG | -2.6 ± 0.33 | -2.04 ± 0.41
AGCGAGCAAUAUUACGUAUC |  | -3.38 ± 0.39
AGCGAGCAAUAUUACGUCUG | -2.03 ± 0.11 | -1.8 ± 0.14
AGCGAGCAAUAUUACGUGAC | -3.4 ± 0.28 | 
AGCGAGCAAUAUUACGUGGC | -4.97 ± 0.31 | -2.46 ± 0.2
AGCGAGCAAUAUUACGUGGU | -3.2 ± 0.25 | -3.06 ± 0.22
AGCGAGCAAUAUUACGUUAG | -2.38 ± 0.11 | -3.18 ± 0.27
AGCGAGCAAUAUUACGUUUA |  | -1.96 ± 0.26
AGCUAGCAAUAUUACGACGC | -1.63 ± 0.098 | -0.406 ± 0.13
AGCUAGCAAUAUUACGACUC | -2.01 ± 0.16 | -1.24 ± 0.15
AGCUAGCAAUAUUACGAGCC | -3.51 ± 0.32 | -2.5 ± 0.49
AGCUAGCAAUAUUACGAGUA | -1.65 ± 0.15 | -0.618 ± 0.12
AGCUAGCAAUAUUACGAGUU | -2.58 ± 0.16 | -2.45 ± 0.22
AGCUAGCAAUAUUACGAUUU | -0.0195 ± 0.06 | 0.214 ± 0.086
AGCUAGCAAUAUUACGCAGA | -3.4 ± 0.34 | -1.82 ± 0.18
AGCUAGCAAUAUUACGCCGC | -2.36 ± 0.2 | -3.06 ± 0.47
AGCUAGCAAUAUUACGCCGG | -2.94 ± 0.2 | -1.85 ± 0.34
AGCUAGCAAUAUUACGCGAA | -3.09 ± 0.23 | -1.24 ± 0.22
AGCUAGCAAUAUUACGCGCG | -0.92 ± 0.18 | -0.121 ± 0.17
